Experimental data from article PMC7910587.

Target: IQGAP1 (Ras GTPase-activating-like protein IQGAP1) (human (endogenous in INT 407)) (UniProt P46940)
Assay: co-IP; INT 407 cells non-infected or infected for 45 min with C. jejuni wild-type strain (F38011 or 81-176) or the ∆ciaD mutant; lysis in IP buffer with 50 mM NaCl; IP with mouse anti-IQGAP1 and Protein A/G agarose; immunoblots for RacGAP1, Rac1, Erk 1/2

Sequence of UniProt P46940 (P46940 whole entry): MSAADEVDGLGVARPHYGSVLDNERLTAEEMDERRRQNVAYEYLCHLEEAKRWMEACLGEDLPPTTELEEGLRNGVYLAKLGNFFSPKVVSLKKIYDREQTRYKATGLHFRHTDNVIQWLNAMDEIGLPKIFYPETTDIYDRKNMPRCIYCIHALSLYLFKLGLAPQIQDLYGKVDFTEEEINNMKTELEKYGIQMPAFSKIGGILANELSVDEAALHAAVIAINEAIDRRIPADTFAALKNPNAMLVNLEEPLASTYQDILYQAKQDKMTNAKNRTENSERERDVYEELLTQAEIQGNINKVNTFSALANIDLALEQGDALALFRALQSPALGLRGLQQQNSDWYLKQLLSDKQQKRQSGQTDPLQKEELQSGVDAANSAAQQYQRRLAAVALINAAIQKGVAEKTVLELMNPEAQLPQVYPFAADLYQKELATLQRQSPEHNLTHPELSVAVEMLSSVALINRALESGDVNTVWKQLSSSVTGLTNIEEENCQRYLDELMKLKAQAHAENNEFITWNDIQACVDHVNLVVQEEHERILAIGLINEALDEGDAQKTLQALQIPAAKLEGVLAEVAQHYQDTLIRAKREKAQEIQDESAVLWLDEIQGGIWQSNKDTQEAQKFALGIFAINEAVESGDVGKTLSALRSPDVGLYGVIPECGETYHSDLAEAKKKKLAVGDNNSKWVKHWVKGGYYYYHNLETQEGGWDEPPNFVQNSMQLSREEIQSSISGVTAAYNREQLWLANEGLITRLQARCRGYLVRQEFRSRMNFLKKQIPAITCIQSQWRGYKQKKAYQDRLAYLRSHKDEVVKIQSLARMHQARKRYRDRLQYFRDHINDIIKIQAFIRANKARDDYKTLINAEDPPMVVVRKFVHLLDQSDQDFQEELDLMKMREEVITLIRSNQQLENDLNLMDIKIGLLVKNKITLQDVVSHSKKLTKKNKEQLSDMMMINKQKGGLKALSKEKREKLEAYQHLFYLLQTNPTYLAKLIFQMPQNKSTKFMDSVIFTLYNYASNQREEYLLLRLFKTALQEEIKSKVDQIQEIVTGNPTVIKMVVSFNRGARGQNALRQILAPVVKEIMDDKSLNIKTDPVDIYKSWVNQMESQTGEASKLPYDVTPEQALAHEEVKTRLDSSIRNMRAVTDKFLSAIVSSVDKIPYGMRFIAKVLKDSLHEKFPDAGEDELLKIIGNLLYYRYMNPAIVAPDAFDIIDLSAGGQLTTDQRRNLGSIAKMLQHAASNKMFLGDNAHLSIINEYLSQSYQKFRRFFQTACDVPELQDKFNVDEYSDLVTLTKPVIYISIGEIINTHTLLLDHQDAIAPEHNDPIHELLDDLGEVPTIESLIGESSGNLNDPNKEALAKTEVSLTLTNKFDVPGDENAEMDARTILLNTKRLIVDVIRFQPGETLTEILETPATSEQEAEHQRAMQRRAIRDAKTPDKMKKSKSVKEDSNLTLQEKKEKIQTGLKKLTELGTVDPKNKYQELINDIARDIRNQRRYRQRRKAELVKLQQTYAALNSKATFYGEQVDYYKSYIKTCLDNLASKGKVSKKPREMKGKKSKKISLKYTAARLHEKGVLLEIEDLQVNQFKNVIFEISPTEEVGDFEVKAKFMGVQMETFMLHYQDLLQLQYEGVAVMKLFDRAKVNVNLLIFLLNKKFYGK

CiaD effector protein of the C. jejuni F38011 wild-type strain (from UniProt Q0PAA2 1-163) (natural protein)
reduction of RacGAP1 in the IQGAP1 complex on infection with the wild-type strain: 50%
